Test results published in paper PMC2602806.
Where two headings read alike, the source gives them in different places.

Columns and labels:
Assay in all cases: X-ray crystallography
[1] = target: T1, VP1 RNA-dependent RNA polymerase (cVP1) (Simian rotavirus A SA11 (group A; …, UniProt O37061 1-1088)
T1 sequence: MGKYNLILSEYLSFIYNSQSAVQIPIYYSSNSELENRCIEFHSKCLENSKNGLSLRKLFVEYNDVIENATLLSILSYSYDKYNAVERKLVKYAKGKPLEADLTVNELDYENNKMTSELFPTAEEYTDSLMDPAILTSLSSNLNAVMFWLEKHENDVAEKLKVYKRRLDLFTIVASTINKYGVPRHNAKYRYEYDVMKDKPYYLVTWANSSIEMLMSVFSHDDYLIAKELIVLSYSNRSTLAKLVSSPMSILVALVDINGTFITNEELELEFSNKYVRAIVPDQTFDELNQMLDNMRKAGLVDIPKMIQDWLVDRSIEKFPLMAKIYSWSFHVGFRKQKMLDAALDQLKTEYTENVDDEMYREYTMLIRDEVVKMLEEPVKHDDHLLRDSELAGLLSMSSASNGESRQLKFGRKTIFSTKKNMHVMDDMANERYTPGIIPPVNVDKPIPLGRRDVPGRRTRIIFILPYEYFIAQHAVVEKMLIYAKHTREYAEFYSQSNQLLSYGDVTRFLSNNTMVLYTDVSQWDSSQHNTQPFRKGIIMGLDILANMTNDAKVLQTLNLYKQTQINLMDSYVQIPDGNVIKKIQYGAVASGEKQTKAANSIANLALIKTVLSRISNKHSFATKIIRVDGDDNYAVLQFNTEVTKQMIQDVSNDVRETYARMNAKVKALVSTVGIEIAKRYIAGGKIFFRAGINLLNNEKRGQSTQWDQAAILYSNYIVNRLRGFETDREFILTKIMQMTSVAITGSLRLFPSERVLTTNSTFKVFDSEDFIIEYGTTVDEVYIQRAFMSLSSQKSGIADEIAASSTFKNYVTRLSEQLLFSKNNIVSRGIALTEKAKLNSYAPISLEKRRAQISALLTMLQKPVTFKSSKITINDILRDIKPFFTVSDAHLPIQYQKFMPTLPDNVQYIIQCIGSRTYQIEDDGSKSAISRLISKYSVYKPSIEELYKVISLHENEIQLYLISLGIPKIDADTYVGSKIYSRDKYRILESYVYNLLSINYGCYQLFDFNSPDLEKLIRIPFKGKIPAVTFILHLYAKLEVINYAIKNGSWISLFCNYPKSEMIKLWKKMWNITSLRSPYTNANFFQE

[2] = target: T1, VP1 RNA-dependent RNA polymerase (cVP1); remark: listed apart in the source
[3] = target: T1, VP1 RNA-dependent RNA polymerase (cVP1); remark: listed apart in the source
[4] = target: T1, VP1 RNA-dependent RNA polymerase (cVP1); remark: listed apart in the source
[5] = target: T1, VP1 RNA-dependent RNA polymerase (cVP1); remark: listed apart in the source

Binder: GGCUUU (ssRNA) [5'CS+]
- binding result [1]: binds

Binder: UGUGAACC (ssRNA) [3'CS+ A-insertion]
- binding result [2]: binds

Binder: AAAAGCC (ssRNA) [3'CS-]
- binding result [3]: binds

Binder: UGUGACC (ssRNA) [3'CS+ wild type]
- binding result [4]: binds

Binder: UGUGCC (ssRNA) [3'CS+ A3-deletion]
- binding result [5]: binds
